pKd: −log10 of the molar value.
Tests used:
[1] = biological target: HLA-B*58:01; test: IEDB peptide-MHC binding, purified MHC/competitive/radioactivity; filed as Kd, often an IC50 or EC50 that approximates it; ≥ and ≤ were set here for values at or beyond the usual limits of such assays
[2] = biological target: HLA-B*08:03; test: IEDB peptide-MHC binding, purified MHC/direct/fluorescence; filed as Kd, often an IC50 or EC50 that approximates it; ≥ and ≤ were set here for values at or beyond the usual limits of such assays
[3] = biological target: HLA-A*69:01; test: as above
[4] = biological target: HLA-B*27:05; test: as above
[5] = biological target: HLA-A*03:01; test: as above
[6] = biological target: HLA-A*01:01; test: as above
[7] = biological target: HLA-B*46:01; test: as above
[8] = biological target: HLA-A*11:01; test: as above; details: source organism: Marburg virus - Musoke, Kenya, 1980
[9] = biological target: HLA-B*18:01; test: as above; details: source organism: Marburg virus - Musoke, Kenya, 1980
[10] = biological target: HLA-B*57:01; test: as above
[11] = biological target: HLA-A*26:02; test: as above; details: source organism: Ravn virus - Ravn, Kenya, 1987
[12] = biological target: HLA-B*15:17; test: as above
[13] = biological target: HLA-B*15:01; test: as above
[14] = biological target: HLA-B*40:01; test: as above; details: source organism: Marburg virus - Musoke, Kenya, 1980
[15] = biological target: HLA-B*07:02; test: as above
[16] = biological target: HLA-A*68:02; test: as above
[17] = biological target: HLA-B*48:01; test: as above
[18] = biological target: HLA-A*31:01; test: as above
[19] = biological target: HLA-A*02:01; test: as above
[20] = biological target: HLA-A*26:01; test: as above
[21] = biological target: HLA-B*08:01; test: as above
[22] = biological target: HLA-A*26:03; test: as above
[23] = biological target: HLA-B*58:01; test: as above
[24] = biological target: HLA-A*02:06; test: IEDB peptide-MHC binding, purified MHC/competitive/fluorescence; filed as Kd, often an IC50 or EC50 that approximates it; ≥ and ≤ were set here for values at or beyond the usual limits of such assays; details: source organism: Orthomarburgvirus marburgense
[25] = biological target: HLA-A*11:01; test: as above
[26] = biological target: HLA-A*26:02; test: as above
[27] = biological target: HLA-A*30:01; test: as above; details: source organism: Orthomarburgvirus marburgense
[28] = biological target: HLA-A*02:01; test: as above; details: source organism: Orthomarburgvirus marburgense
[29] = biological target: HLA-A*26:01; test: as above; details: source organism: Orthomarburgvirus marburgense
[30] = biological target: HLA-B*39:01; test: IEDB peptide-MHC binding, purified MHC/direct/fluorescence; filed as Kd, often an IC50 or EC50 that approximates it; ≥ and ≤ were set here for values at or beyond the usual limits of such assays
[31] = biological target: HLA-B*15:09; test: as above
[32] = biological target: HLA-B*08:02; test: as above
[33] = biological target: HLA-B*57:01; test: IEDB peptide-MHC binding, purified MHC/competitive/radioactivity; filed as Kd, often an IC50 or EC50 that approximates it; ≥ and ≤ were set here for values at or beyond the usual limits of such assays
[34] = biological target: HLA-B*18:01; test: IEDB peptide-MHC binding, purified MHC/competitive/fluorescence; filed as Kd, often an IC50 or EC50 that approximates it; ≥ and ≤ were set here for values at or beyond the usual limits of such assays
[35] = biological target: HLA-B*15:01; test: as above; details: source organism: Variola major virus
[36] = biological target: HLA-A*68:02; test: as above
[37] = biological target: HLA-A*31:01; test: as above
[38] = biological target: HLA-C*15:02; test: IEDB peptide-MHC binding, purified MHC/direct/fluorescence; filed as Kd, often an IC50 or EC50 that approximates it; ≥ and ≤ were set here for values at or beyond the usual limits of such assays; details: source organism: Variola major virus
[39] = biological target: HLA-A*24:03; test: as above
[40] = biological target: HLA-A*30:01; test: as above; details: source organism: Variola virus
[41] = biological target: HLA-C*14:02; test: as above; details: source organism: Variola major virus
[42] = biological target: HLA-B*57:01; test: IEDB peptide-MHC binding, purified MHC/competitive/fluorescence; filed as Kd, often an IC50 or EC50 that approximates it; ≥ and ≤ were set here for values at or beyond the usual limits of such assays; details: source organism: Influenza A virus H3N2
[43] = biological target: HLA-B*15:17; test: as above; details: source organism: Influenza A virus H3N2
[44] = biological target: HLA-B*35:01; test: as above; details: source organism: Influenza A virus H3N2
[45] = source organism: Ravn virus - Ravn, Kenya, 1987
[46] = source organism: Marburg virus - Musoke, Kenya, 1980
[47] = source organism: Orthomarburgvirus marburgense
[48] = source organism: Lake Victoria marburgvirus - Popp
[49] = source organism: Dengue virus 3 Martinique/1243/1999
[50] = source organism: Dengue virus 4 Philippines/H241/1956
[51] = source organism: Variola major virus
[52] = source organism: Buffalopox virus
[53] = source organism: Influenza A virus H3N2
[54] = source organism: Influenza A virus(A/swine/Shandong/fNY/2003(H9N2))
[55] = source organism: Influenza A virus (A/Swine/Italy/25823/94(H3N2))

AAVLLLVTHY
pKd ([1]; source organism: Dengue virus 3 Singapore/8120/1995): 5.38

CVFKFIVAK
pKd [2, 45]: ≤ 4.70 | pKd [3, 46]: ≤ 4.70 | pKd [4, 46]: ≤ 4.70 | pKd [5, 46]: 6.41 | pKd [6, 46]: ≤ 4.70 | pKd [7, 46]: ≤ 4.70 | pKd [8]: 7.51 | pKd [9]: ≤ 4.70 | pKd [10, 46]: ≤ 4.70 | pKd [11]: ≤ 4.70 | pKd [12, 46]: ≤ 4.70 | pKd [13, 46]: ≤ 4.70 | pKd [14]: ≤ 4.70 | pKd [15, 46]: ≤ 4.70 | pKd [16, 46]: ≤ 4.70 | pKd [17, 46]: ≤ 4.70 | pKd [18, 46]: 6.56 | pKd [19, 46]: ≤ 4.70 | pKd [20, 45]: ≤ 4.70 | pKd [21, 45]: ≤ 4.70 | pKd [22, 45]: ≤ 4.70 | pKd [23, 46]: ≤ 4.70

FLMRNAIQY
pKd [24]: 5.64 | pKd [25, 47]: 5.41 | pKd [26, 47]: 5.72 | pKd [27]: 5.56 | pKd [28]: 6.60 | pKd [29]: 5.59 | pKd [2, 47]: ≤ 4.70 | pKd [3, 48]: ≤ 4.70 | pKd [4, 48]: ≤ 4.70 | pKd [6, 48]: 7.43 | pKd [7, 48]: 5.38 | pKd [30, 47]: ≤ 4.70 | pKd [31, 47]: ≤ 4.70 | pKd [32, 47]: ≤ 4.70 | pKd [10, 48]: ≤ 4.70 | pKd [12, 48]: 6.80 | pKd [13, 48]: 6.73 | pKd [15, 48]: ≤ 4.70 | pKd [16, 48]: ≤ 4.70 | pKd [17, 48]: ≤ 4.70 | pKd [18, 48]: ≤ 4.70 | pKd [22, 47]: ≤ 4.70 | pKd [23, 48]: ≤ 4.70

KAAVEDEDF
pKd [1, 49]: 7.12

LGKAYAQMW
pKd [33, 49]: 6.68

RTSCLQKQSH
pKd [33, 50]: 6.21

RYPGVMYAF
pKd [25, 51]: 5.37 | pKd [34, 51]: 6.00 | pKd [26, 51]: 5.32 | pKd [35]: 5.44 | pKd [36, 51]: ≤ 4.70 | pKd [37, 51]: 6.92 | pKd ([2]; source organism: Variola virus): ≤ 4.70 | pKd [3, 52]: ≤ 4.70 | pKd [38]: ≤ 4.70 | pKd [6, 52]: ≤ 4.70 | pKd ([30]; source organism: Variola virus): ≤ 4.70 | pKd ([31]; source organism: Variola virus): ≤ 4.70 | pKd [10, 52]: ≤ 4.70 | pKd [39, 52]: 8.70 | pKd [15, 52]: ≤ 4.70 | pKd [40]: 5.40 | pKd [41]: 7.80 | pKd [19, 52]: ≤ 4.70 | pKd ([20]; source organism: Variola virus): ≤ 4.70 | pKd ([22]; source organism: Variola virus): ≤ 4.70 | pKd [23, 52]: ≤ 4.70

SFSFGGFTF
pKd [25, 53]: ≤ 4.70 | pKd [34, 53]: 6.70 | pKd [42]: 5.63 | pKd [26, 53]: 5.74 | pKd [43]: 7.40 | pKd [44]: 6.55 | pKd [36, 53]: 5.61 | pKd [37, 53]: ≤ 4.70 | pKd [2, 54]: ≤ 4.70 | pKd [4, 55]: ≤ 4.70 | pKd [5, 55]: ≤ 4.70 | pKd [6, 55]: ≤ 4.70 | pKd [31, 54]: ≤ 4.70 | pKd [32, 54]: ≤ 4.70 | pKd [39, 55]: ≥ 9.00 | pKd [13, 55]: 7.43 | pKd [15, 55]: ≤ 4.70 | pKd [19, 55]: ≤ 4.70 | pKd [21, 54]: ≤ 4.70 | pKd [23, 55]: 7.20

TTRLENIMW
pKd [33, 50]: 7.88

— the Immune Epitope Database (IEDB)
